Broadly, the stoichiometry N is the number of molecules, sites or subunits per partner or assembly.

The values below come from article PMC8022333 (The FEBS journal, 2018).

This data set concerns the molecule itself. The data set is described as follows: crystal structure.

B1: vimentin coil 1B (residues 153–238) (domain or fragment)
chain: not shown
B1: the “stoichiometry N” value was 8.
